In general, IC50 refers to the midpoint of a concentration-inhibition curve.

Experiment [1] has as its target recombinant human PD-L1 (Sino Biological Inc.) (human, UniProt Q9NZQ7 19-239). Put plainly: PD-L1/CD80 blocking assay, competitor CD80, format not described.
In experiment [2] the target is T1, recombinant human PD-L1-Fc protein (human, UniProt Q9NZQ7 19-238, limits assumed).
T1 construct: Prepared by Beijing Hanmi Pharmaceutical; The GenBank number is NP_001254635.1
Put plainly: competition ELISA: PD-L1-Fc coated, competitor biotin-labelled PD-1-Fc. The protocol:
A 96-well high-adsorption ELISA plate was coated with 1 μg/mL of the recombinant human PD-L1-Fc at 100 μL per well using carbonate buffer solution, pH=9.6 at 4° C. overnight. The plate was washed 5 times with PBST, and then blocked using PBST with 1% BSA, 300 μL/well, and incubated at 25° C. for 1 hour, and then washed 5 times with PBST. […] The Streptavidin-HRP (BD Pharmingen, catalog number 554066) diluted 1:1000 in PBST with 1% BSA was then added, 100 μL per well, and incubated at 25° C. for 1 hour. The plate was washed 5 times with PBST. The colorimetric substrate TMB was added, 100 μL/well, and developed at room temperature for 10 minutes. 1M H₂SO₄ was added, 100 μL/well, to stop the development. The absorbance at 450 nm was read on a microplate reader.
(In general: In an ELISA, binding on a coated surface is turned into a signal by an enzyme label.)

Experiment [3] addresses recombinant rat PD-L1 (Sino Biological Inc.) (rat, UniProt D4AE25 19-239). As to the kind of experiment: ELISA, plate coated with 1 ug/mL recombinant rat PD-L1, anti-human IgG-HRP, OD450. The protocol:
(§1) A 96-well high-adsorption ELISA plate was coated with 1 μg/mL of the recombinant human PD-L1, cynomolgus PD-L1, rat PD-L1 and mouse PD-L1 (all purchased from Sino Biological Inc.), at 100 μL per well using carbonate buffer solution, pH=9.6 at 4° C. overnight. The plate was washed 5 times with PBST, and then blocked using PBST with 1% BSA, 300 μL/well, and incubated at 25° C. for 1 hour, and then washed 5 times with PBST. The chimeric anti-human PD-L1 antibody samples serially diluted in PBST with 1% BSA were added, 100 μL/well, incubated at 25° C. for 1 hour, and then washed 5 times with PBST. The horseradish peroxidase-labeled anti-human IgG antibody (Chemicon, catalog number AP309P) diluted 1:10000 in PBST with 1% BSA was then added, 100 μL per well, and incubated at 25° C. for 1 hour. The plate was washed 5 times with PBST. The colorimetric substrate TMB was added, 100 μL/well, and developed at room temperature for 10 minutes. 1M H₂SO₄ was added, 100 μL/well, to stop the development. The absorbance at 450 nm was read on a microplate reader.

Experiment [4] deals with recombinant mouse PD-L1 (Sino Biological Inc.) (mouse, UniProt Q9EP73 19-238). Put plainly: ELISA, plate coated with 1 ug/mL recombinant mouse PD-L1, anti-human IgG-HRP, OD450. The protocol: as §1
recombinant mouse PD-L1 (Sino Biological Inc.), sequence (Q9EP73 19-238 limits assumed): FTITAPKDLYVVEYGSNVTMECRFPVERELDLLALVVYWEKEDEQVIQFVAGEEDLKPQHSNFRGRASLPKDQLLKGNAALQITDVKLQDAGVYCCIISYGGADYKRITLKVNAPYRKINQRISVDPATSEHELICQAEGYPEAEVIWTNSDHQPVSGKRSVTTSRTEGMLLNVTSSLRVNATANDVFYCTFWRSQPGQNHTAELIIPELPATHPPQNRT
In experiment [5] the target is recombinant human BTLA (Sino Biological Inc.) (human, UniProt Q7Z6A9 31-157, limits assumed). Put plainly: ELISA, plate coated with 1 ug/mL recombinant human BTLA, anti-human IgG-HRP, OD450; antibody concentration not shown. As to the method: (§2) The plate was washed 5 times with PBST, and then blocked using PBST with 1% BSA, 300 μL/well, and incubated at 25° C. for 1 hour, and then washed 5 times with PBST. […] The horseradish peroxidase-labeled anti-human IgG antibody (Chemicon, catalog number AP309P) diluted 1:10000 in PBST with 1% BSA was then added, 100 μL per well, and incubated at 25° C. for 1 hour. The plate was washed 5 times with PBST. The colorimetric substrate TMB was added, 100 μL/well, and developed at room temperature for 10 minutes. 1M H₂SO₄ was added, 100 μL/well, to stop the development. The absorbance at 450 nm was read on a microplate reader.

Experiment [6] has as its target T2, recombinant human B7-H2 (Sino Biological Inc.) (human, UniProt O75144 19-258, limits assumed).
T2 sequence (looked up): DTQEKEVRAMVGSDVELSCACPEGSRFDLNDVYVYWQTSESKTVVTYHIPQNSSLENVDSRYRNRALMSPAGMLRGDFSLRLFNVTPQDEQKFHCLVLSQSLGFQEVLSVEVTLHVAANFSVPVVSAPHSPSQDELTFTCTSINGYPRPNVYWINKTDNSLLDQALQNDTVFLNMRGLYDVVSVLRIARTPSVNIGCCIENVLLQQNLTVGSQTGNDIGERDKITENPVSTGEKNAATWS
As to the kind of experiment: ELISA, plate coated with 1 ug/mL recombinant human B7-H2, anti-human IgG-HRP, OD450; antibody concentration not shown. The protocol: as §2

The target of experiment [7] is recombinant human CTLA4 (Sino Biological Inc.) (human, UniProt P16410 36-162). As to the kind of experiment: ELISA, plate coated with 1 ug/mL recombinant human CTLA4, anti-human IgG-HRP, OD450; antibody concentration not shown. As to the method: as §2
recombinant human CTLA4 (Sino Biological Inc.), sequence (P16410 36-162 limits assumed): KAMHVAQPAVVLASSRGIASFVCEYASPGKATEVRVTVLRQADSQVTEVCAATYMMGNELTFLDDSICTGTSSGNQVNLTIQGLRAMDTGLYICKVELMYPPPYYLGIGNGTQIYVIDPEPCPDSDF
The target in experiment [8] is T3, recombinant human CD86 (Sino Biological Inc.) (human, UniProt P42081 24-247, limits assumed).
T3 sequence (looked up): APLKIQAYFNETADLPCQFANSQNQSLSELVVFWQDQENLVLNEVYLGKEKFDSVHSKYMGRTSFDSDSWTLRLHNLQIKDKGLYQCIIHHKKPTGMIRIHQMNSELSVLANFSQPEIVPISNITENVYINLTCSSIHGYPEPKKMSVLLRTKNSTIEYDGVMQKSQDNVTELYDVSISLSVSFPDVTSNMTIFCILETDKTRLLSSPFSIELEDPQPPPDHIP
Put plainly: ELISA, plate coated with 1 ug/mL recombinant human CD86 (printed B7-2), anti-human IgG-HRP, OD450; antibody concentration not shown. The protocol:
as §2

The target of experiment [9] is T4, recombinant human PD-L2 (Sino Biological Inc.) (human, UniProt Q9BQ51 20-219).
T4 sequence (looked up): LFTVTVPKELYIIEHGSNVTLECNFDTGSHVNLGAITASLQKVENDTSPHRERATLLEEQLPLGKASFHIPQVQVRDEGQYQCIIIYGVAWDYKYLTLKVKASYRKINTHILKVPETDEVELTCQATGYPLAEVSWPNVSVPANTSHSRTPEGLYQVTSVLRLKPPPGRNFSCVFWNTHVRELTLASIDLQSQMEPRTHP
Put plainly: ELISA, plate coated with 1 ug/mL recombinant human PD-L2 (printed B7-DC), anti-human IgG-HRP, OD450; antibody concentration not shown. The protocol: as §2

T1 sequence (Q9NZQ7 19-238 limits assumed): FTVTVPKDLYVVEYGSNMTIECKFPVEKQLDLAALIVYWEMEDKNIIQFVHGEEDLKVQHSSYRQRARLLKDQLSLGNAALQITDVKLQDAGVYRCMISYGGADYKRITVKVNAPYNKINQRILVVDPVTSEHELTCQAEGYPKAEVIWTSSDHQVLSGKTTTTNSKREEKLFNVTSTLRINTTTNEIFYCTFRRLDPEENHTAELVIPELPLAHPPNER
recombinant human PD-L1 (Sino Biological Inc.), sequence (Q9NZQ7 19-239 limits assumed): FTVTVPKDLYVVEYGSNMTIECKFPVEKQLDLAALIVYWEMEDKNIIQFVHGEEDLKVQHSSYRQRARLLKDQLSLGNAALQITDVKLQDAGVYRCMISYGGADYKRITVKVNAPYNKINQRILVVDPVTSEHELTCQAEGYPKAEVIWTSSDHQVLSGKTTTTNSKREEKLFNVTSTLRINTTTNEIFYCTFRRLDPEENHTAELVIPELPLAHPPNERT
recombinant rat PD-L1 (Sino Biological Inc.), sequence (D4AE25 entry or part of it limits assumed): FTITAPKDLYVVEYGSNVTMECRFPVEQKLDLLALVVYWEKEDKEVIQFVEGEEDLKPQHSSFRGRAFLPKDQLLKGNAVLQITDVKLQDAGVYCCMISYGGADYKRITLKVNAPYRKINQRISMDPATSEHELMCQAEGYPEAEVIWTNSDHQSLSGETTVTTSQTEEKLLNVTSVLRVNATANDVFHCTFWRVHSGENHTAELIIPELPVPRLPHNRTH

B1: chimeric anti-human PD-L1 monoclonal antibody (antibody, human IgG1, kappa, V domains shown)
VH: EVQLQQSGAELVKPGASVKLSCTASGFNIEDTYIHWVMQRPEQGLEWIGRIDPANGNTKYDPKFQGKATITADTSSNTAYLQLSSLTSEDTAVYYCGRGLGAWFAYWGQGTLVTVSA
VL: DIVMTQSHKVMSTSVGDRVTITCKASQDVHTAVAWIHQKPGQSPKLLIYSASNRYTGVPDRFTGSGSGTDFTFTISSVQAEDLAVYYCQQHYITPLTFGAGTTLELKR
notes: expressed in ExpiCHO cells; also called Chimeric mAb; Chimeric antibody
On to B1, for which the figures for the IC50 in experiment [1] and in experiment [2] were 0.762 nM and 0.596 nM, respectively. Further, the binding result in [3] is listed as “no binding (tested: about 20 nM (last point on the log axis))”; in experiment [4] it was “no binding (tested: about 20 nM (last point on the log axis))”; in experiment [5], “no binding”; in [6], “no binding”; in experiment [7], “no binding”; in experiment [8] it was “no binding”. For the same molecule, in [9], the binding result was “no binding”.

The record behind these values is patent US20240301068A1 (BEIJING HANMI PHARMACEUTICAL, published 2024).
